This experiment addresses His-CLK1(ΔN) (mouse). Kind of experiment: kinetic competition.

Ki data for 1 substance are collected here from publication PMC5056641.

Chain of SRSF1 (His-tagged) (Q07955 whole entry): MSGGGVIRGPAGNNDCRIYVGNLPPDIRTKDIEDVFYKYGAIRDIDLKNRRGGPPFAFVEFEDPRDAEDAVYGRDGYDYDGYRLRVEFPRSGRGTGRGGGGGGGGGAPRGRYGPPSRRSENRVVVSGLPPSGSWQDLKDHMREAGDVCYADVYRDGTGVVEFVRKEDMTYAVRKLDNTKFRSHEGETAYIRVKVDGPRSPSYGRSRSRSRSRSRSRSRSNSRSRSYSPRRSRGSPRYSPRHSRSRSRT

In the case of “SRSF1 (His-tagged) (from UniProt Q07955 1-248) (natural protein)”, the Ki stood at 0.3 µM.
